Reference: paper PMC12311895, “Single-Molecule Protein Interactions and Unfolding Revealed by Plasmon-Enhanced Fluorescence” (Analytical Chemistry, 2025)
Where no end group is shown, it is not given here.

Target: T1, MBP-PDZ protein (Erbin PDZ) with a single cysteine, conjugated to DNA (UniProt Q96RT1 1321-1410, ATTO 532 (labelled with ATTO 532-NHS); amine-modified DNA oligonucleotide coupled through sulfo-SMCC to the single cysteine between MBP and PDZ)
T1 construct: stretch between MBP and the PDZ domain that holds the single introduced cysteine; Erbin PDZ domain; Held on DNA-coated 40 by 80 nm gold nanorods by DNA hybridisation; About 50% of the protein in the conjugation mixture carried no DNA; also called Erbin PDZ protein; PDZ-DNA; not shown: MBP, N-terminal, kept
Experiment: single-molecule plasmon-enhanced fluorescence microscopy (TIRF); MBP-PDZ held on gold nanorods (40 by 80 nm) by DNA hybridisation, particles immobilised on glass; ATTO 655-labeled peptide in solution; 637 nm laser; 20 ms exposure; koff from bright times (double exponential fit), kon from event frequency against proteins per particle
Settings: both partners purified

B1: ATTO 655-labeled target peptide (peptide)
chain: CGAGRGSIDTWV
modifications: also: ATTO 655 label (site not given here)
Kd: 1 to 5.1 µM
kon: 1.2e+07 M⁻¹ s⁻¹
